Assay results from patent US7927849B2, “Laccase enzyme and use thereof” (AB Enzymes OY, priority 2004, dated 2011).

How the values were obtained:
[1] = Specific activity on ABTS; assay type: biochemical; settings: 25 mM succinate buffer pH 4.5, 25° C.
Protocol: The activity assay was carried out in accordance with the method developed by Niku-Paavola et al. (1988). The sample was diluted with 0.025 M succinate buffer, pH 4.5. […] The activity is expressed as nano katals.
Specific activities of the purified Thielavia laccase were determined towards different laccase substrates.

[2] = Decolorization of dyes; design: key: −: no visually detectable change; +: visually detectable fading of the colour; ++: considerable fading of the colour; +++: complete/almost complete decolorization; settings: dye 12 mg/100 ml, 50° C., pH 6
Protocol: The TaLcc1 laccase preparation from strain RF5597 was tested for its ability to decolourize different dyes in the presence or absence of the methyl syringate mediator (Example 7). The experiments were carried out in 250 ml shake flasks containing 100 ml of dye dissolved in citrate phosphate buffer pH 6. Dye concentration 12 mg/100 ml was used. Enzyme was dosed 200 nkat (or 20 nkat) per 100 ml and the mediator 10 (or 1) mg per 100 ml. The shake flasks were incubated at 50° C. for 30, 90 and 150 minutes. Samples of 3.5 ml were taken in test tubes for visual evaluation.

[3] = enzyme 20 nkat/100 ml, mediator 0 mg/100 ml
[4] = enzyme 20 nkat/100 ml, mediator 1 mg/100 ml
[5] = enzyme 200 nkat/100 ml, mediator 0 mg/100 ml
[6] = enzyme 200 nkat/100 ml, mediator 10 mg/100 ml

B1: TaLcc1: Recombinant Thielavia arenaria ALKO4197 laccase 1 (SEQ ID NO: 12) produced in Trichoderma reesei strains RF5597/RF5598 (protein)
chain: MKSWAAAVALMVGILSPHAAAAPPANPVQRDMLQVLEARQSGPTCNTPSNRACWTNGFDINTDYEVSTPNTGRTVAYQLTLTEKENWIGPDGVLKNVVMLVNDKIIGPTIRANWGDNIEVTVINNLKTNGTSMHWHGLRQLGNVFNDGANGVTECPIPPKGGRKTYKFRATQYGTSWYHSHFSAQYGNGVVGTIQIDGPASLPYDIDLGVFPLMDYYYRSADELVHFTQSNGAPPSDNVLFNGTARHPETGAGQWYNVTLTPGKRHRLRIINTSTDNHFQVSLVGHNMTVIATDMVPVNAFTVSSLFLAVGQRYDVTIDANSPVGNYWFNVTFGDGLCGSSNNKFPAAIFRYQGAPATLPTDQGLPVPNHMCLDNLNLTPVVTRSAPVNNFVKRPSNTLGVTLDIGGTPLFVWKVNGSAINVDWGKPILDYVMSGNTSYPVSDNIVQVDAVDQWTYWLIENDPTNPIVSLPHPMHLHGHDFLVLGRSPDELPSAGVRHIFDPAKDLPRLKGNNPVRRDVTMLPAGGWLLLAFKTDNPGAWLFHCHIAWHVSGGLSVDFLERPNDLRTQLNSNAKRADRDDFNRVCREWNAYWPTNPFPKIDSGLRHRFVEESEWMVR
modifications: Thielavia arenaria ALKO4197; (1)..(617) Deduced amino acid sequence of Thielavia arenaria ALKO4197 laccase 1 (Ta Lcc1)
−: Decolorization of Remazol Brilliant Blue, Time 30 min [2, 3] | Decolorization of Remazol Brilliant Blue, Time 90 min [2, 3] | Decolorization of Remazol Brilliant Blue, Time 30 min [2, 4] | Decolorization of Remazol Brilliant Blue, Time 90 min [2, 4] | Decolorization of Cibacron Brilliant Red 3B-P, Time 30 min [2, 5] | Decolorization of Cibacron Brilliant Red 3B-P, Time 90 min [2, 5] | Decolorization of Pontamine Bast Orange GRN, Time 30 min [2, 5] | Decolorization of Pontamine Bast Orange GRN, Time 90 min [2, 5] | Decolorization of Remazol Brilliant Blue, Time 30 min [2, 5] | Decolorization of Remazol Brilliant Blue, Time 90 min [2, 5]
910 nkat/mg: Specific activity on ABTS [1]
+: Decolorization of Pontamine Bast Orange GRN, Time 30 min [2, 6] | Decolorization of Pontamine Bast Orange GRN, Time 90 min [2, 6]
+++: Decolorization of Cibacron Brilliant Red 3B-P, Time 30 min [2, 6] | Decolorization of Cibacron Brilliant Red 3B-P, Time 90 min [2, 6]
++: Decolorization of Remazol Brilliant Blue, Time 30 min [2, 6] | Decolorization of Remazol Brilliant Blue, Time 90 min [2, 6]
